In the DeepSol protein solubility set:

test: soluble on expression in E. coli; label from the status in PepcDB or PDB records

| Sequence | soluble on expression in E. coli |
| --- | --- |
| MRTDPERFILDNAAIMHPPHVPELRLHLATEAHELWLKTEEELEEIGLPPPFWAFAWAGGQGLARYILDHPESVCGKRVLDFASGSGLVAIAAAKAGAAKVLAADIDPWTETAIRLNAALNGVDIGFTGLDLVGKPVDADVLLAGDVFYDRAFADLLVPWFVELTEKGMIVLVGDPGRAYLPKERLRAEATYQVPVTRALEDSDVKKTTVWRFILEHHHHHH | soluble |
| GPGSMARVTLREDFDDCAADYRILSVSADHFKEITCKVAACKQTGEEMGKINETHHEATTLMTMKGGSQLLLCDDERTFRVRRVEYSNTLLLAEAKAAKMHDTNGIIESDNASDAGEGREHVVVCSSERVFEVKPSVAYNDISQHLLESPLTLKELDTLGTVERSDENVEYIKREELENGTSSSAQRFYTFPQLVALNRSSARELAVILSDMGAVVFNGYVRLLKPALMREALRASLNFFDAYDTMSWEGVMEQLCPSVYPHIVLRAVRAAYGNATASGETPRGMAAFLQVPKVLQALAASVLLADDAEQNTQFTEAELQDKKLSKSVNRRGSLFPELDFDIFYDSWTSSIPSSLFADGTLPSQSDRNALLKFLYGSVIVVRNAEGDSHVGARAVWAPSNVLSTDVSLRTRQLFEIRPGRWEAEELRAYVAPLLDPGVAFDHIIVRYAKEYRVPGRPVMYGNLS | not soluble |
| GPGSMEATVAPSTGLRQLRRVRRARTQYERLQRPDDIQPGYPIPSIEGWVLFFSNLPETTTQEDIANYLVSFKEGDPDYFGAITDIKIPLNADCFCAGYALVELEDRAGYERAIAELNGTVFPSADKPLVVAPTFLGEEEEQEPQAEEVAPGEKRARD | soluble |
| KIDDGTELKLKGEKLRYVSRGGLKLEKALAVFNLSVEDMITIDIGASTGGFTDVMLQNGAKLVYAVDVGTNQLVWKLRQDDRVRSMEQYNFRYAEPVDFTEGLPSFASIDVSFISLNLILPALAKILVDGGQVVALVKPQFEAGREQIGKNGIVRESSIHEKVLETVTAFAVDYGFSVKGLDFSPIQGGHGN | not soluble |
| MSMPKCEICNDDYSSEDGDHSPRNLKCSHTLCEGCIKKMLGNSKIVCPFCREPTDMPGNKMESLHKNFALIQAIQLFAKTTKITEVEEPMLEKCKHHPDYLVETVCVEEDCSESGKYMCRKCVSTLSHLHHTKKSLIAEMEKSRELLQGRINRLNKTIGEIDQDVRKLRMSQIAFREGGNNYQQKANEITTFYSRIREMVNEREKEALVKLKEVAKSILDENDSALPPLLRSHQKLTEYVRKATEAKKRNNAIACITAAEDLLNKTKDCCDEEYYTIESQDINVCIKPIDIPVATITRK | not soluble |
| MGSDKIHHHHHHMGIYFNPGNGSFTKDKNSQLYIDKTGLIEYLNRVICTNANCISVSHARRFGKSHAAGMIDAYYSRGCDSSELFADSEIAAKDSYSAHLNKYNVIHIDVSSFWDAYKDNVIEKIQEYIYDELKQVYGDQIDYTKMISAVLMSVYNISDIPFVIIIDEWDCVIRNGGNKTLVHSYLQFLHLLFKSEESKTFLALAYITGILPIKKIKDESALNNFREFTMLKSKQLTRYFGFTEDEVKKLCITYDMDFESIKAWYNGYLIDGLHMYNPNSVVQAMLDHDYDFYWKNTSSFESINTFITMNYAGLKDDVLAMLSGDKIRVNVNTFQNDLTTVASKDDALTALIHLGYLAYDANRKMAYIPNYEVAAAYDLALQTGSWSEVANSISKCDELLDATLNEDADKVAELVEIAHETYTSVLKYNDENSLSCALTMAYFTANAYYNIVREFPAGKGFADLVFIPRANACGRPAIVIELKYNASADSAISQIKNRRYHGALSGYSNQILLVGINYSNTSDNKKHTCIIESINNLD | not soluble |
| MTAALHIGHLSKSFQNTPVLNDISLSLDPGEILFIIGASGCGKTTLLRCLAGFEQPDSGEISLSGKTIFSKNTNLPVRERRLGYLVQEGVLFPHLTVYRNIAYGLGNGKGRTAQERQRIEAMLELTGISELAGRYPHELSGGQQQRAALARALAPDPELILLDEPFSALDEQLRRQIREDMIAALRANGKSAVFVSHDREEALQYADRIAVMKQGRILQTASPHELYRQPADLDAALFIGEGIVFPAALNADGTADCRLGRLPVQSGAPAGTRGTLLIRPEQYSLHPHSAPAASIHAVVLKTTPKARHTEISLRAGQTVLTLNLPSAPTLSDGISAVLHLDGPALFFPGNTLEHHHHHH | soluble |
| AHHHHHHGSEFNIIIAGVGGQGGLTLSRIIGSAAMVEGYRVRIGETLGMSQRYGSVLSYLRFGDSVYSPLIEEGKANLMLALEPVEALRNAAFLGKGSYAIVNAYPIHTATTLVGKEKYPSLEEIKEALEKICRVEMMNFQKEADLINPRTTGVLMLGYAQGKGLLPLKKESIIEGIRLTLREKLWEINFKAFERGRELAKHVCCDV | soluble |
| AKEKDTIRTEGVVTEALPNATFRVKLDSGPEILAYISGKMRMHYIRILPGDRVVVEITPYDPTRGRIVYRK | soluble |
| MYCQRLRQLRKAHKLTMEQLAEKIGIAKSSYGGYEAESKKPPLDKLVILARLYDVSVDYILGLTDDPDPKVERKNLKEFLEKPDIHWDGYKLTPEILDPIRKILKLVTANNN | not soluble |
| MSLIPATLLLVEDDPDQRIIMQRKLQQQGYKVICAENGEEAVDLYNNNTIDLVLMDAQLPGMDGFEACFLITHTETGSRCPVMMITSLENSESVDRAFQVGAEEYVPKPIHWKVLMQRIRRQIKSRRVHQEGHHHHHH | soluble |
| MLEKNPTLEKLLKSLEDIQAIDIKIIDVHKQTTITDFMVVTSGRSSRHVKSIAQKVLEDMKVAGLPCLSSTGIEHGDWALIDFGDIILHVMQPEFRHFYNLEGLWEEHPGNSLEHHHHHH | not soluble |
| MFNYSTKDANLSNKTILVTGAGAGIGRTAALTYAQLGATVILLGKTVSKLEAVYDEIVALGLAEPAIIPLDLKGATKQNYIDMSSTISSQFGHLDGVLLNASILGELTPFTQMHEQVFNDVMKVNVTAQCLLAQTLIPTLLLAPNASLVFTSSGVGSQGRAYWGQYSISKFATEGMMQVIADEYEGSNLRTNAINPGATNTNMRSCAFPAEDKDELATPEDIMPLYVYLMSDDSLEINGQTLKAQ | not soluble |
| MGSDKIHHHHHHVTYGDNVKPINDALLTEFPKEKRYLVYDKKFVKNPEAWSAEYALPYRRLRFIRLAYLLATSKHLFIDNYIGEYSVAPIRQGTKRIQLWHAAGTLKKFGLTSSRSLMVPKHVLRRFKRVYQRYGDFIVPGEACAKQFMAPHDLHRTVFKTLGVPRTDYWFNEQHQTVKKQLSDIYVKPKRRILLYAPTYREYNGMEGQTVRQLEQLTDQGWTILVKLHPTVRSMFTHQKAHVHFVTDEYSINDYLLITDVLVTDYSSIPFESCLLGVPTVLYTPDIDTYRQIPGIIDSYPDPLPVTCTDQFEIMLNWINSDVSLQESRMAMEQFKTIWYTEQPGQATRRIVDHYYRKVR | not soluble |
| MRKLWPLALLLAACGAQDVGAGLDPLRLTATSLPPAYLGEPYSASLAAEGGVRPYSFTLDGKLPEGLSFQGGRLFGVPKEKGSFPLLLTVEDAAKNSRAQRLTLTVSDPPPPRLALVLPPAQVEGPFLLLARVEGREAVGFQMEVRLADLEPDLAGLKALSPAHLLDYDPATRLLRLDMAFAKPVKDREAFRFLLTPQKPLVPRLSPKVVFYDKEGKPLGQPLPRGKPFAELLRLAQAWGREGKALKEDLDGDGKVGEADLRLLAQGYFPKPETPSPEVPGGGEGQASGEEQAP | soluble |
| KQNSLMGITGGLTARYISEKYFAMICGAQVELNISQRGWDELFEVPGENGEPVEDPTRKYTRKMTYLDIPFLAHLAFGNEKGLQFFINAGPQIGLLIGESESMENIDMNALTDTQKAVYGDKIQNKFDYGIAGGGGIEFRTKKAGSFLLEGRYYFALSDFYSTTKKDYFSRAAHGTITVKLTYLFDLK | not soluble |
| MGSDKIHHHHHHTACETDNDSNPILNEPDTFTLNTPAYAANNVYDLKNAQTVELTCSQPDYGFPAATTYTVQASFEQDFIEATDESKANYTVLESTSPTAKINVDASELNNALLDLWTAVNGEQAELPTEPVAVYIRLKANITSSGKGVCFSNVIELPNVLISKSTSSLTPPKTMFIVGSMLDTDWKVWKPMAGVYGMDGQFYSMIYFDANSEFKFGTKENEYIGINDNRVTVTDKAGAGVSGSDNFVVENAGWYLFYVKAAVKGDDYQFTITFYPAEVYLFGNTTGGSWAFNDEWKFTVPATKDGNFVSPAMTASGEVRMCFKTDLDWWRTEFTLHDGEIFYRDFNLIDSWTEKGDGYSIQGSAGNVIHLNFTAGTGEKK | not soluble |
| MGSDKIHHHHHHMIRNLTPSDFAQVISLGEQVHGANYLDLDTLKHYYQLGIKDGINAHFVAEQAGEIIGFRLTFTANQWTLDEWCSPALWGVEIDKVCYFKSNTLAEKARGQGIGGDLLAQSIAAVKAQGAKAGVSHLWKQSPHNAAVRYFTKAGGRLIKEHPGRWNQANDGSDYLCVLCGNDCHCTACEMLINF | not soluble |
| MGETTAEAKKDPSSIRVVALDWRYEEILHALGITPVGIVEIGKSKEPQTLKGELEGVTSVGQAKQPNLEVIQSLEPDLILASPTRQAAIMDQLKEIAPTHAYGDTSYTEVLDAMDDIATKVGAEDKAKEVRTRIESKIAQAKNKVEPGTRTALIGWSKNTLYTWVKDSFAGSLLTAAGYEYGYDGEKSAIESKTDVAELTGDKLPEMKLDVMYLYNDIEGFRSSPYADVVSNIVDVEQDTWSRSRGPLAAEAMLDQIINSLEHHHHHH | not soluble |
| MTIDRVCTIGPASNNKETLAKLINNGMKIVRLNLSHGTHESHKDIIRLVKSLDDSIKILGDVQGPKIRLGEIKGEQITLQAGDSFMLRTQPVTGSSTEASVDYEGIANDVKVGSRILMNDGEVELIVEKVSTDKIETKVKTGGNISSHKGVNLPGAIVSLPAITEKDKKDIQFLLEEDVDFIACSFVRKPSHIKEIRDFIQQYKETSPNLIAKIETMEAIENFQDICKEADGIMIARGDLGVELPYQFIPLLQKMMIQECNRTNTYVITATQMLQSMVDHSIPTRAEVTDVFQAVLDGTNAVMLSAESASGEHPVESVSTLRLVSEFAEHVKKDGPFVMKDVLELLHKSLDE | soluble |
| MVTGLICFTGCSDDFLKDKKVYGSYDASVVYENYETAKSRVDFLYQSLLPSSTGGSNALTDITSAGIDDDFSKCTEEYGDYSIFNDPTASLTIQTVPDYFYVINSERSPWGRIRECNNVIEGVTGSATLSQTEKEQLLGQAYFFRAWRYYLLVKMYGGVPIVDHVQNPVIGDGNGENLVIPRSSTKACIDFICDDLELAASYLPARWQNEGQDYGRITAGAALALKGRTLLLYASPLFNRADDASRWKDAYDANFAAITKLNEGNFGLAYEGNGGEDNAKNWARMFATYTGGSEAVFVTLYNNVSPIASQNINRYNLWEQGIRPGNINGGGGKTPTAEIIDIFPMIDGKKPMESGVHYDPKKFFLNRDPRFYRTFAFPGVEWKFNSGNVDFSGATMSGLCPTRYTSGANYELWNYCWYTTADERNNPSRSGFAADMLGTKNRGVYVRKRSDDFDLGTSLYVFTDNSSGDQQGFRRSAAPYMEIRYAEVLLNLAESACGAGGTYHAEGVKALKAVRGRVGYTSANNYGLDAAIETDRAKLFEAILYERQVELAFEGKRAYDMRRWMLFDGGVGQGALNASWALSGFGGNTCTYLGVTPMNERGKRYRIEINVEGTGSANNDSDPIKNVERPAALTLNEKIATEADGETILDPAVSSICTFYDTYFSRKDISLDGNVLDINPYFQPRYYFFGLRQSAQQTNATLYQTIGWEDYAHGGMGTFDPLAE | not soluble |
| AHHHHHHGSKLKFWREVAIDIISDFETTIMPFFGNPDGGKLVKISPSGDETKLVDKLAEDLILSRITELGVNVVSEEVGVIDNESEYTVIVDPLDGSYNFIAGIPFFALSLAVFKKDKPIYAIIYEPMTERFFEGIPGEGAFLNGKRIKVRKTPDEKPSISFYSRGKGHEIVKHVKRTRTLGAIALELAYLAMGALDGVVDVRKYVRPTDIAAGTIIAKEAGALIKDSAGKDIDISFNATDRLDVIAVNSEELLKTILSLLE | soluble |
